According to PMC11255602:

Columns and labels:
[1] = target: PRMT1 S14 (N-terminal truncation lacking the first 13 amino acids) (UniProt Q99873); test: native gel or EMSA
[2] = target: PRMT1 E27 (N-terminal truncation lacking the first 26 amino acids) (UniProt Q99873); test: native gel or EMSA

## PRMT1 S14 (N-terminal truncation lacking the first 13 amino acids) (from UniProt Q99873-3 14-353) (domain or fragment)
[1]
  stoichiometry N: 4

## PRMT1 E27 (N-terminal truncation lacking the first 26 amino acids) (from UniProt Q99873-3 27-353) (domain or fragment)
[2]
  stoichiometry N: 4
